In US20220105150A1, “AMPHIPATHIC ALPHA-HELICAL ANTIMICROBIAL PEPTIDES TREAT INFECTIONS BY GRAM-NEGATIVE PATHOGENS” (priority 2019, published 2022):
Square brackets hold non-standard residues; d marks the D form. dOrn = NCCC[C@@H](N)C(=O)O; Dab = NCC[C@H](N)C(=O)O; Dap = NC[C@H](N)C(=O)O

B1: D86(K13A/K16A)-(Lys1-6Dab-1) (peptide)
peptide: Ac-[dK][dL][Dab][dS][dL][dL][Dab][dT][dL][dS][Dab][dA][dA][dA][dA][dA][dL][Dab][dT][dL][dL][Dab][dA][dL][dS][Dab]-NH2
SMILES: CC(=O)N[C@H](CCCCN)C(=O)N[C@H](CC(C)C)C(=O)N[C@@H](CCN)C(=O)N[C@H](CO)C(=O)N[C@H](CC(C)C)C(=O)N[C@H](CC(C)C)C(=O)N[C@@H](CCN)C(=O)N[C@@H](C(=O)N[C@H](CC(C)C)C(=O)N[C@H](CO)C(=O)N[C@@H](CCN)C(=O)N[C@H](C)C(=O)N[C@H](C)C(=O)N[C@H](C)C(=O)N[C@H](C)C(=O)N[C@H](C)C(=O)N[C@H](CC(C)C)C(=O)N[C@@H](CCN)C(=O)N[C@@H](C(=O)N[C@H](CC(C)C)C(=O)N[C@H](CC(C)C)C(=O)N[C@@H](CCN)C(=O)N[C@H](C)C(=O)N[C@H](CC(C)C)C(=O)N[C@H](CO)C(=O)N[C@@H](CCN)C(N)=O)[C@H](C)O)[C@H](C)O
notes: Control AMP without specificity determinants (Ala13/Ala16); also called D86(A13/A16-6Dab-1); D86(K13A/K16A-6 Dab-1)
B2: D84(Lys1-6Lys-1) (peptide)
peptide: Ac-[dK][dL][dK][dS][dL][dL][dK][dT][dL][dS][dK][dA][dK][dA][dA][dK][dL][dK][dT][dL][dL][dK][dA][dL][dS][dK]-NH2
SMILES: CC(=O)N[C@H](CCCCN)C(=O)N[C@H](CC(C)C)C(=O)N[C@H](CCCCN)C(=O)N[C@H](CO)C(=O)N[C@H](CC(C)C)C(=O)N[C@H](CC(C)C)C(=O)N[C@H](CCCCN)C(=O)N[C@@H](C(=O)N[C@H](CC(C)C)C(=O)N[C@H](CO)C(=O)N[C@H](CCCCN)C(=O)N[C@H](C)C(=O)N[C@H](CCCCN)C(=O)N[C@H](C)C(=O)N[C@H](C)C(=O)N[C@H](CCCCN)C(=O)N[C@H](CC(C)C)C(=O)N[C@H](CCCCN)C(=O)N[C@@H](C(=O)N[C@H](CC(C)C)C(=O)N[C@H](CC(C)C)C(=O)N[C@H](CCCCN)C(=O)N[C@H](C)C(=O)N[C@H](CC(C)C)C(=O)N[C@H](CO)C(=O)N[C@H](CCCCN)C(N)=O)[C@H](C)O)[C@H](C)O
notes: Designed 26-residue AMP; Lys at 3, 7, 11, 18, 22, 26; Lys13/Lys16 specificity determinants; also called D84(6 Lys-1); D84-6 Lys-1
B3: D86(Lys1-6Dab-1) (peptide)
peptide: Ac-[dK][dL][Dab][dS][dL][dL][Dab][dT][dL][dS][Dab][dA][dK][dA][dA][dK][dL][Dab][dT][dL][dL][Dab][dA][dL][dS][Dab]-NH2
modifications: not fully specified
notes: Designed 26-residue AMP; Lys13/Lys16 specificity determinants; also called D86(6 Dab-1); D86-6 Dab-1
B4: D85(K13A/K16A)-(Lys1-6Orn-1) (peptide)
peptide: Ac-[dK][dL][dOrn][dS][dL][dL][dOrn][dT][dL][dS][dOrn][dA][dA][dA][dA][dA][dL][dOrn][dT][dL][dL][dOrn][dA][dL][dS][dOrn]-NH2
SMILES: CC(=O)N[C@H](CCCCN)C(=O)N[C@H](CC(C)C)C(=O)N[C@H](CCCN)C(=O)N[C@H](CO)C(=O)N[C@H](CC(C)C)C(=O)N[C@H](CC(C)C)C(=O)N[C@H](CCCN)C(=O)N[C@@H](C(=O)N[C@H](CC(C)C)C(=O)N[C@H](CO)C(=O)N[C@H](CCCN)C(=O)N[C@H](C)C(=O)N[C@H](C)C(=O)N[C@H](C)C(=O)N[C@H](C)C(=O)N[C@H](C)C(=O)N[C@H](CC(C)C)C(=O)N[C@H](CCCN)C(=O)N[C@@H](C(=O)N[C@H](CC(C)C)C(=O)N[C@H](CC(C)C)C(=O)N[C@H](CCCN)C(=O)N[C@H](C)C(=O)N[C@H](CC(C)C)C(=O)N[C@H](CO)C(=O)N[C@H](CCCN)C(N)=O)[C@H](C)O)[C@H](C)O
notes: Control AMP without specificity determinants (Ala13/Ala16); also called D85(A13/A16-6Orn-1); D85(K13A/K16A-6 Orn-1)
B5: D105(Lys1-6Dap-1) (peptide)
peptide: Ac-[dK][dL][Dap][dS][dL][dL][Dap][dT][dL][dS][Dap][dA][dK][dA][dA][dK][dL][Dap][dT][dL][dL][Dap][dA][dL][dS][Dap]-NH2
SMILES: CC(=O)N[C@H](CCCCN)C(=O)N[C@H](CC(C)C)C(=O)N[C@@H](CN)C(=O)N[C@H](CO)C(=O)N[C@H](CC(C)C)C(=O)N[C@H](CC(C)C)C(=O)N[C@@H](CN)C(=O)N[C@@H](C(=O)N[C@H](CC(C)C)C(=O)N[C@H](CO)C(=O)N[C@@H](CN)C(=O)N[C@H](C)C(=O)N[C@H](CCCCN)C(=O)N[C@H](C)C(=O)N[C@H](C)C(=O)N[C@H](CCCCN)C(=O)N[C@H](CC(C)C)C(=O)N[C@@H](CN)C(=O)N[C@@H](C(=O)N[C@H](CC(C)C)C(=O)N[C@H](CC(C)C)C(=O)N[C@@H](CN)C(=O)N[C@H](C)C(=O)N[C@H](CC(C)C)C(=O)N[C@H](CO)C(=O)N[C@@H](CN)C(N)=O)[C@H](C)O)[C@H](C)O
notes: Designed 26-residue AMP; Lys13/Lys16 specificity determinants; also called D105(6Dap-1); D105-6 Dap-1
B6: D85(Lys1-6Orn-1) (peptide)
peptide: Ac-[dK][dL][dOrn][dS][dL][dL][dOrn][dT][dL][dS][dOrn][dA][dK][dA][dA][dK][dL][dOrn][dT][dL][dL][dOrn][dA][dL][dS][dOrn]-NH2
SMILES: CC(=O)N[C@H](CCCCN)C(=O)N[C@H](CC(C)C)C(=O)N[C@H](CCCN)C(=O)N[C@H](CO)C(=O)N[C@H](CC(C)C)C(=O)N[C@H](CC(C)C)C(=O)N[C@H](CCCN)C(=O)N[C@@H](C(=O)N[C@H](CC(C)C)C(=O)N[C@H](CO)C(=O)N[C@H](CCCN)C(=O)N[C@H](C)C(=O)N[C@H](CCCCN)C(=O)N[C@H](C)C(=O)N[C@H](C)C(=O)N[C@H](CCCCN)C(=O)N[C@H](CC(C)C)C(=O)N[C@H](CCCN)C(=O)N[C@@H](C(=O)N[C@H](CC(C)C)C(=O)N[C@H](CC(C)C)C(=O)N[C@H](CCCN)C(=O)N[C@H](C)C(=O)N[C@H](CC(C)C)C(=O)N[C@H](CO)C(=O)N[C@H](CCCN)C(N)=O)[C@H](C)O)[C@H](C)O
notes: Designed 26-residue AMP; also called D85(6Orn-1)
B7: D105(K13A/K16A)-(Lys1-6Dap-1) (peptide)
peptide: Ac-[dK][dL][Dap][dS][dL][dL][Dap][dT][dL][dS][Dap][dA][dA][dA][dA][dA][dL][Dap][dT][dL][dL][Dap][dA][dL][dS][Dap]-NH2
SMILES: CC(=O)N[C@H](CCCCN)C(=O)N[C@H](CC(C)C)C(=O)N[C@@H](CN)C(=O)N[C@H](CO)C(=O)N[C@H](CC(C)C)C(=O)N[C@H](CC(C)C)C(=O)N[C@@H](CN)C(=O)N[C@@H](C(=O)N[C@H](CC(C)C)C(=O)N[C@H](CO)C(=O)N[C@@H](CN)C(=O)N[C@H](C)C(=O)N[C@H](C)C(=O)N[C@H](C)C(=O)N[C@H](C)C(=O)N[C@H](C)C(=O)N[C@H](CC(C)C)C(=O)N[C@@H](CN)C(=O)N[C@@H](C(=O)N[C@H](CC(C)C)C(=O)N[C@H](CC(C)C)C(=O)N[C@@H](CN)C(=O)N[C@H](C)C(=O)N[C@H](CC(C)C)C(=O)N[C@H](CO)C(=O)N[C@@H](CN)C(N)=O)[C@H](C)O)[C@H](C)O
notes: Control AMP without specificity determinants (Ala13/Ala16); also called D105(A13/A16-6Dap-1); D105(K13A/K16A-6 Dap-1)
B8: D102(Lys1Ser26-5Dab-1) (peptide)
peptide: Ac-[dK][dL][Dab][dS][dL][dL][Dab][dT][dL][dS][Dab][dA][dK][dA][dA][dK][dL][Dab][dT][dL][dL][Dab][dA][dL][dS][dS]-NH2
SMILES: CC(=O)N[C@H](CCCCN)C(=O)N[C@H](CC(C)C)C(=O)N[C@@H](CCN)C(=O)N[C@H](CO)C(=O)N[C@H](CC(C)C)C(=O)N[C@H](CC(C)C)C(=O)N[C@@H](CCN)C(=O)N[C@@H](C(=O)N[C@H](CC(C)C)C(=O)N[C@H](CO)C(=O)N[C@@H](CCN)C(=O)N[C@H](C)C(=O)N[C@H](CCCCN)C(=O)N[C@H](C)C(=O)N[C@H](C)C(=O)N[C@H](CCCCN)C(=O)N[C@H](CC(C)C)C(=O)N[C@@H](CCN)C(=O)N[C@@H](C(=O)N[C@H](CC(C)C)C(=O)N[C@H](CC(C)C)C(=O)N[C@@H](CCN)C(=O)N[C@H](C)C(=O)N[C@H](CC(C)C)C(=O)N[C@H](CO)C(=O)N[C@H](CO)C(N)=O)[C@H](C)O)[C@H](C)O
notes: Designed 26-residue AMP; Ser26; Lys13/Lys16 specificity determinants; also called D102(5 Dab-1)
B9: D87(Lys1-6Arg-1) (peptide)
peptide: Ac-[dK][dL][dR][dS][dL][dL][dR][dT][dL][dS][dR][dA][dK][dA][dA][dK][dL][dR][dT][dL][dL][dR][dA][dL][dS][dR]-NH2
SMILES: CC(=O)N[C@H](CCCCN)C(=O)N[C@H](CC(C)C)C(=O)N[C@H](CCCNC(=N)N)C(=O)N[C@H](CO)C(=O)N[C@H](CC(C)C)C(=O)N[C@H](CC(C)C)C(=O)N[C@H](CCCNC(=N)N)C(=O)N[C@@H](C(=O)N[C@H](CC(C)C)C(=O)N[C@H](CO)C(=O)N[C@H](CCCNC(=N)N)C(=O)N[C@H](C)C(=O)N[C@H](CCCCN)C(=O)N[C@H](C)C(=O)N[C@H](C)C(=O)N[C@H](CCCCN)C(=O)N[C@H](CC(C)C)C(=O)N[C@H](CCCNC(=N)N)C(=O)N[C@@H](C(=O)N[C@H](CC(C)C)C(=O)N[C@H](CC(C)C)C(=O)N[C@H](CCCNC(=N)N)C(=O)N[C@H](C)C(=O)N[C@H](CC(C)C)C(=O)N[C@H](CO)C(=O)N[C@H](CCCNC(=N)N)C(N)=O)[C@H](C)O)[C@H](C)O
notes: De novo designed 26-residue amphipathic alpha-helical antimicrobial peptide; Arg at 3, 7, 11, 18, 22, 26; Lys13/Lys16 specificity determinants; also called D87(6Arg-1); D87-6 Arg-1
B10: D101(Lys1Ser26-5Lys-1) (peptide)
peptide: Ac-[dK][dL][dK][dS][dL][dL][dK][dT][dL][dS][dK][dA][dK][dA][dA][dK][dL][dK][dT][dL][dL][dK][dA][dL][dS][dS]-NH2
SMILES: CC(=O)N[C@H](CCCCN)C(=O)N[C@H](CC(C)C)C(=O)N[C@H](CCCCN)C(=O)N[C@H](CO)C(=O)N[C@H](CC(C)C)C(=O)N[C@H](CC(C)C)C(=O)N[C@H](CCCCN)C(=O)N[C@@H](C(=O)N[C@H](CC(C)C)C(=O)N[C@H](CO)C(=O)N[C@H](CCCCN)C(=O)N[C@H](C)C(=O)N[C@H](CCCCN)C(=O)N[C@H](C)C(=O)N[C@H](C)C(=O)N[C@H](CCCCN)C(=O)N[C@H](CC(C)C)C(=O)N[C@H](CCCCN)C(=O)N[C@@H](C(=O)N[C@H](CC(C)C)C(=O)N[C@H](CC(C)C)C(=O)N[C@H](CCCCN)C(=O)N[C@H](C)C(=O)N[C@H](CC(C)C)C(=O)N[C@H](CO)C(=O)N[C@H](CO)C(N)=O)[C@H](C)O)[C@H](C)O
notes: Designed 26-residue AMP; Lys at 3, 7, 11, 18, 22; Ser26; Lys13/Lys16 specificity determinants; also called D101(5 Lys-1)

Molecular target: the molecule itself
Assay: RP-HPLC temperature profiling, self-association (dimerization/oligomerization) against random coil control RC

Row | Binder | PA (self-association parameter) [min]
1 | B1 | 12.5
2 | B2 | 5.9
3 | B3 | 0
4 | B4 | 28
5 | B5 | 3.7
6 | B6 | 4.1
7 | B7 | 18
8 | B8 | 0
9 | B9 | 5.9
10 | B10 | 6

Each binder was assayed against serum proteins (assay: cell-based or functional assay).

Row | MIC (µM) against A. baumannii strain 649 in 25% human serum (no serum: 0.8) [µM] | fold loss of antimicrobial activity in 25% human sera [fold] | MIC (µM) against A. baumannii strain 649 in 25% human serum (no serum: 0.3) [µM] | MIC (µM) against A. baumannii strain 649 in 25% human serum (no serum: 0.7) [µM] | fold change of MIC in 25% human sera against no serum [fold] | MIC (µM) against A. baumannii strain 649 in 25% human serum (no serum: 0.4) [µM] | Binder
11 | 3 | 4 | – | – | – | – | B1
12 | – | – | 0.3 | – | – | – | B2
13 | – | – | – | 0.2 | – | – | B3
14 | 3 | – | – | – | 4 | – | B5
15 | – | – | – | – | – | 0.2 | B6
16 | 12.5 | 15 | – | – | – | – | B7
17 | – | – | – | – | – | 0.7 | B8
18 | – | – | – | 1.3 | – | – | B9
19 | – | – | – | 0.7 | – | – | B10
